Experimental data from article PMC4045772 (PLoS ONE, 2014).

Target: biotinylated Cul3/Rbx1 (UniProt Q13618 1-768; P62877 1-108, biotin (BirA biotinylation of the Avi tag))
Assay: AlphaScreen or HTRF; 30 nM His-tagged Keap1 (35-235) incubated with CDDO or DMSO 2.5 h at 37°C, then 30 nM biotinylated Cul3/Rbx1 1.5 h at room temperature; nickel chelate donor beads and streptavidin acceptor beads
Settings: both partners purified

Chain of biotinylated Cul3/Rbx1 (Q13618 whole entry, chain 1 of 2): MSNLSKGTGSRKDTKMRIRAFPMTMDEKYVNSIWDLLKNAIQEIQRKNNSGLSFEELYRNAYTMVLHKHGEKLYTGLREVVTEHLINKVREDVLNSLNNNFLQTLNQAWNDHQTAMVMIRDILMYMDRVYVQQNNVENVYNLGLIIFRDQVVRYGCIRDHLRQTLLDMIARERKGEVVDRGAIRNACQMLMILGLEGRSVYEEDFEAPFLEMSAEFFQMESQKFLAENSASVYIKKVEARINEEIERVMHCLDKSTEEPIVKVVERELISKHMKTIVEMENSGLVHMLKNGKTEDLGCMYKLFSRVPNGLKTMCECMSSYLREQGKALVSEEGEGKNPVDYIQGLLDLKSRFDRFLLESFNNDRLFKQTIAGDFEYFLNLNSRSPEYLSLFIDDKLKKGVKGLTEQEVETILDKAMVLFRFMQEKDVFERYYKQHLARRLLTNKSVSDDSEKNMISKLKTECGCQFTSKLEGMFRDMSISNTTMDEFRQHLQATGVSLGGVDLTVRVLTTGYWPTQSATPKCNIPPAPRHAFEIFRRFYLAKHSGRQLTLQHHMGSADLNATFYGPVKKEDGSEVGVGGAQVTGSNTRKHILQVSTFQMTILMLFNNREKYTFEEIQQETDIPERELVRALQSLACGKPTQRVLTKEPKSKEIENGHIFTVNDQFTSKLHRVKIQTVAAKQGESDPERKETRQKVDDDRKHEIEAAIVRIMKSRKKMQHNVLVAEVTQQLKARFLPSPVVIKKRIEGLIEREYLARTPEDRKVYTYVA
Chain of biotinylated Cul3/Rbx1 (P62877 whole entry, chain 2 of 2): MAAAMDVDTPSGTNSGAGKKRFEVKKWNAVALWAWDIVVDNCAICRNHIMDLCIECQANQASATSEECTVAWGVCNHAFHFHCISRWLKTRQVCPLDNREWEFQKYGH

B1: Keap1 BTB with the first ~50 residues of the BACK domain (residues 35-235), C151S (domain or fragment, human, UniProt Q14145 35-235, looked up)
chain: STECKAEVTPSQHGNRTFSYTLEDHTKQAFGIMNELRLSQQLCDVTLQVKYQDAPAAQFMAHKVVLASSSPVFKAMFTNGLREQGMEVVSIEGIHPKVMERLIEFAYTASISMGEKSVLHVMNGAVMYQIDSVVRACSDFLVQQLDPSNAIGIANFAEQIGCVELHQRAREYIYMHFGEVAKQEEFFNLSHCQLVTLISRD
- binding result: binds
